In US20110154538A1 (UNITED STATES OF AMERICA AS REPRESENTED BY THE SECRETARY OF …, published 2011):

Target: T1, Gal4 activation domain (AD) negative control (UniProt P04386 768-881)
T1 sequence: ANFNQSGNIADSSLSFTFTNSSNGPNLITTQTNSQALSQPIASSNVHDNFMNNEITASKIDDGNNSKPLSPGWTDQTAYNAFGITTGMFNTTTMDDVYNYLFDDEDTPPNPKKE
Assay: yeast two-hybrid, growth on selective medium

B1: AltMV-Po coat protein (other)
chain: MSTPFPQVTQEQIDAFTPHTTSNLLPSPEQLTTIASLLVAAKVPAASTTTIALELVNFCYDNGSSAYTVVVGPSSISGVSLSQVANIVKASGTSLRKFCRFFAPIIWNLRTDKTPPANWEANGFKPTEKFAAFDFFDGVENPAAMQPPGGLVRAPSQAERIANATNKQVNLFQAAAQDNNFASNSAFITKGQLSSNSPTIQYLPPPE
notes: also called AltMV-Po CP; CP-Po
binding result: no binding
